# From patent publication US20040248211A1, “ICAM-related protein” (priority 1992, published 2004)
# B1: ICR-1.1: anti-ICAM-R monoclonal antibody, IgG2a, domain 1, ATCC HB 11053 (antibody, V domains shown)
# VH: QVQLQQSGAELAKPGASVKMSCKASGYTFTVYWMHWVKQRPGQGLEWIGYINPNTDYTEYNQRFQDKATLTADKSSSTAYMQLSSLTSEDSAVYYCARWGGNSYGLDYWGQGTSVTVSS
# VL: QIVLTQSPALMSASPGEKVTMTCSASSSVSYIYWYQQKPRSSPKPWIYLTSNLASGVPARFSGSGSGASYSLTISIMEAEDAATYYCQQWKSIPLTFGAGTKLELK
# Tests used:
# [1] = system: ICAM-R; assay: Epitope mapping by domain substitution/deletion (summary); type: binding, human
# Protocol: Fusion 81 was screened by ELISA on COS cells transiently transfected with either a domain 1 deleted ICAM-R construct [Example 15.C.1] or with an ICAM-2 construct. The transfected cells were paraformaldehyde fixed on 96-well plates, and the remainder of the assay was performed as previously described, except no Tween 20 was used. The wells that were positive for domain 1 deleted ICAM-R but negative for ICAM-2, were tested on Cos cells transiently transfected with domain 1 deleted ICAM-R or domain 3 deleted ICAM-R by ELISA.
# For the anti-ICAM-R monoclonal antibody binding assay, COS cells transfected with constructs encoding the ICAM-R chimeric proteins or control constructs were removed from the plates by EDTA treatment and aliquoted at 2.5×10^5 cells per well in a 96-well round bottom plate. Cells were washed 3 times with ice cold washing buffer (PBS containing 1% BSA and 0.05% sodium azide). […] The samples were analyzed on a Becton-Dickinson FACScan instrument. […]
# Table 11 below is a summary of certain characteristics of ICAM-R specific monoclonal antibodies of the invention which have been specifically described in the foregoing examples. In Table 11, the abbreviation “NC” stands for “not conclusive” and the abbreviation “ND” stands for “not determined.” The antibodies marked with an asterisk in Table 11 enhanced activation at low concentrations.
# [2] = system: PBMC; assay: Anti-CD3 stimulated PBMC aggregation; type: cell-based, human; conditions: immobilized antibody
# [3] = system: human PBL; assay: SEA-induced aggregation of PBL; type: cell-based; conditions: versus plate-bound B-H9
# [4] = system: PBMC and CD4+ T-lymphocytes; assay: Costimulation of anti-CD3 induced lymphocyte proliferation; type: cell-based, human; conditions: anti-CD3 G19 0.001 μg/well; antibody 10 μg/well; 3 days
# Protocol: Because anti-ICAM-R antibodies with anti-CD3 antibodies costimulated early PBMC activation events, anti-ICAM-R antibodies were tested for the ability to costimulate lymphocyte proliferation induced by immobilized anti-CD3 antibody. In addition, to determine whether anti-ICAM-R antibodies costimulate T-lymphocytes in the absence of accessory cells, anti-ICAM-R antibodies were tested for their ability to costimulate proliferation of pure CD4^+ T-lymphocytes, isolated using negative'selection. To isolate CD4^+ cells PBMC were suspended in tissue culture medium, added to 75 ml tissue culture flasks (Corning) and incubated for 1 hour at 37° C., 5% CO2. Plastic nonadherent cells were then removed from the flask by gently rinsing once with PBS. The nonadherent cell fraction was suspended (10^7 cells/ml) in an antibody cocktail containing 1 μg/ml anti-CD8 antibody (Pharmingen, San Diego, Calif.), 1 μg/ml anti-CD19 (Becton Dickinson), 1 μg/ml anti-CD11b (Becton Dickinson) in 10% FBS-PBS (coating medium), and incubated for 1 hour at 4° C. Unbound antibody was removed by washing twice in coating medium. […] Lymphocyte proliferation was measured by ^3H-thymidine incorporation by the PMBC or CD4^+ cells. […]
# [5] = system: PBMC; assay: PBMC proliferation with or without rIL-2; type: cell-based, human; conditions: immobilized antibody 10 μg/well; with or without rIL-2 10 units/ml; 3 days
# Protocol: Ten μg of ICAM-R monoclonal antibodies ICR-1.1 or ICR-4.2 (or control IgG1 and IgG2) antibodies) in PBS were added per well of 96-well flat bottom tissue culture plates and the plates were incubated for 3-4 hours at 37° C. in a 5% CO2 incubator. After incubation, each well was rinsed 3 times with PBS and freshly obtained PBL were added to a final concentration of 2×10^5 cells/well in a volume of 200 μl. Ten units/ml human recombinant IL-2 (Genzyme, Boston, Mass.) was then added to selected wells. The plates were incubated for a total of 3 days at 37° C. in a 5% CO2 incubator. ^3H-thymidine incorporation by the PMBC was determined as described earlier in this example. […] Positive controls for lymphocyte proliferation included immobilized anti-CD3 and anti-LFA-1 (60.3) monclonal antibodies.
molecule,measurement,setting,value
B1,Reactive Domain,[1],1
same,inhibition of anti-CD3 stimulated aggregation,[2],~100%
same,"SEA-induced cell aggregation, plate-bound antibody",[3],almost complete
same,proliferative response to immobilized anti-CD3,[4],increased the PBMC and purified CD4^+ cell response to anti-CD3
same,PBMC proliferation (3H-thymidine),[5],did not induce PMBC proliferation even in the presence of rIL2
